Measurements reported in paper PMC3857177 (PLoS ONE, 2013).
Substitutions are numbered along the chain they refer to.

T1: human Shrm2 SD2 domain (1427–1610), N-terminally labelled with Oregon Green 488 (human, UniProt Q13796 1427-1610, Oregon Green 488 (succinimidyl ester) on the N-terminus, labelling essentially 1:1)
T1 chain: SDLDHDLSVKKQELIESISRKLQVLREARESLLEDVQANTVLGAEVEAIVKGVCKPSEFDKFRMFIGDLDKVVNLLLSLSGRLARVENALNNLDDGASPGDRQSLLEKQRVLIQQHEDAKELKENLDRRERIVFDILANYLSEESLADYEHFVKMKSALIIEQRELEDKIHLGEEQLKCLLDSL

T2: human Rock1 707–946, SBD^SER variant (human, UniProt Q13464 707-946, triple alanine mutation, 884EKE886)
T2 construct: source: E. coli BL21(DE3) codon plus (RIPL), purified; not shown: His6, N-terminal, cleaved
T2 sequence (looked up): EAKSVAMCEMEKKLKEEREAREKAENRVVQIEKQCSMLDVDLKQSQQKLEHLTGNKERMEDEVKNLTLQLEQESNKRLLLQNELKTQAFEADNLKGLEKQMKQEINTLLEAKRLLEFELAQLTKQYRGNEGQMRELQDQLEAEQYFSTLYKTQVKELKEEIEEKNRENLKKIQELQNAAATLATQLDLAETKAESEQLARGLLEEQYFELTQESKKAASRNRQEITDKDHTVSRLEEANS

T3: human Rock1 707–946, 865EE866 to alanine (human, UniProt Q13464 707-946, 865EE866 alanine substitutions)
T3 construct: source: E. coli BL21(DE3) codon plus (RIPL), purified; not shown: His6, N-terminal, cleaved
T3 sequence (looked up): T2 sequence (looked up) with E159A, E160A, A178E, A179K, A180E

T4: human Rock1 707–946, wild type (human, UniProt Q13464 707-946)
T4 construct: also called wild-type Rock1 SBD; not shown: His6, N-terminal, cleaved
T4 sequence (looked up): T2 sequence (looked up) with A178E, A179K, A180E

T5: His6-tagged human Rock1 707–913 (human, UniProt Q13464 707-913)
T5 construct: source: E. coli BL21(DE3) codon plus (RIPL), purified; not shown: His6, N-terminal, kept
T5 sequence (looked up): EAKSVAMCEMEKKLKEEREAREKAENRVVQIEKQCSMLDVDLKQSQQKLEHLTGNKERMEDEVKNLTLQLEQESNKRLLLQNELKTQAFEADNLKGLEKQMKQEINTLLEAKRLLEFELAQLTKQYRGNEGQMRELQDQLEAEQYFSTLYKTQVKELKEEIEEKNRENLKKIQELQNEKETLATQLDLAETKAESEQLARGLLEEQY

B1: human Rock1 SBD (834–913), wild type (domain or fragment, UniProt Q13464 834-913, looked up)
chain: GNEGQMRELQDQLEAEQYFSTLYKTQVKELKEEIEEKNRENLKKIQELQNEKETLATQLDLAETKAESEQLARGLLEEQY
notes: PDB 4L2W holds the same limits with the SER mutation 884EKE886 to AAA; also called WT SBD; not shown: His6, N-terminal, cleaved
B2: His6-tagged human Rock1 834–913 (domain or fragment, UniProt Q13464 834-913, looked up)
chain: B1 chain
notes: PDB 4L2W holds the same limits with the SER mutation 884EKE886 to AAA; source: E. coli BL21(DE3) codon plus (RIPL), purified; not shown: His6, N-terminal, kept
B3: human Rock1 SBD (834–913) with the surface entropy reduction mutation (SBD^SER) (domain or fragment, UniProt Q13464 834-913, looked up)
chain: B1 chain with E51A, K52A, E53A
notes: A selenomethionine form was used for phasing only; also called Rock1 SBD^SER; SER mutant; not shown: His6, N-terminal, cleaved
B4: human Rock1 707–946, wild type (domain or fragment)
chain: T2 sequence (looked up) with A178E, A179K, A180E
B5: human Shrm2 SD2 domain (1427–1610), untagged (domain or fragment, UniProt Q13796 1427-1610, looked up)
chain: T1 chain
notes: Shroom2 (Shrm2), human, Shrm Domain 2 (SD2), residues 1427-1610; Cloned into pET151/D-TOPO (His6 removable with TEV); called untagged in the pull-down; also called Shrm SD2; human Shroom2 SD2; source: E. coli BL21(DE3) Codon+(RILP), purified; not shown: His6, N-terminal, cleaved
B6: human Shrm2 SD2 domain (1427–1610), N-terminally labelled with Oregon Green 488 (domain or fragment, UniProt Q13796 1427-1610, looked up)
chain: T1 chain
modifications: Oregon Green 488 (succinimidyl ester) on the N-terminus, labelling essentially 1:1
notes: Shroom2 (Shrm2), human, Shrm Domain 2 (SD2), residues 1427-1610; Same construct as m1, with the fluorophore; also called Shrm2 SD2-Oregon Green 488; Oregon-Green labeled human Shrm2 SD2 domain; source: E. coli BL21(DE3) Codon+(RILP), purified, then labelled
B7: human Rock1 707–946, 900ESE902 to alanine (domain or fragment, UniProt Q13464 707-946, looked up)
chain: T2 sequence (looked up) with A178E, A179K, A180E, E194A, S195A, E196A
notes: source: E. coli BL21(DE3) codon plus (RIPL), purified; not shown: His6, N-terminal, cleaved
B8: His6-tagged human Rock1 772–913 (domain or fragment, UniProt Q13464 772-913, looked up)
chain: LTLQLEQESNKRLLLQNELKTQAFEADNLKGLEKQMKQEINTLLEAKRLLEFELAQLTKQYRGNEGQMRELQDQLEAEQYFSTLYKTQVKELKEEIEEKNRENLKKIQELQNEKETLATQLDLAETKAESEQLARGLLEEQY
notes: source: E. coli BL21(DE3) codon plus (RIPL), purified; not shown: His6, N-terminal, kept

Columns and labels:
[1] = target: T1, human Shrm2 SD2 domain (1427–1610), …; experiment: FP
[2] = target: the molecule itself; experiment: cross-linking; 0.002% glutaraldehyde, 25 min, 26 µM protein; 25 mM HEPES pH 7.5, 8% glycerol, 500 mM NaCl, 5 mM β-ME; SDS-PAGE, Coomassie
[3] = target: B6; experiment: fluorescence polarisation; fluorescence anisotropy; 20 nM (legends: 50 nM) N-terminally Oregon Green 488-labelled Shrm2 SD2, increasing concentrations of Rock1 SBD; 20 mM Hepes pH 7.4, 100 mM NaCl, 5% glycerol; single binding model; details: both partners purified
[4] = target: B5; experiment: pull-down; 25 µg purified His-tagged Rock1 fragment on nickel beads, 2x molar excess of untagged Shrm2 SD2, 10 min room temperature; 2% glycerol, 100 mM NaCl, 7 mM imidazole, 1 mM β-mercaptoethanol, 20 mM Tris pH 8.0; SDS-PAGE, Coomassie; details: both partners purified
[5] = target: T2, human Rock1 707–946, SBD^SER variant; experiment: native gel or EMSA; 10 µM Rock1 707–946 (wild type or mutant) mixed with 10 µM human Shrm2 SD2, 20 min room temperature; 12% native PAGE at 4°C, Coomassie; details: both partners purified
[6] = target: T3, human Rock1 707–946, 865EE866 to alanine; experiment: as above; details: both partners purified
[7] = target: B7; experiment: as above; details: both partners purified
[8] = target: T4, human Rock1 707–946, wild type; experiment: as above; details: both partners purified
[9] = target: T5, His6-tagged human Rock1 707–913; experiment: pull-down; 25 µg purified His-tagged Rock1 fragment on nickel beads, 2x molar excess of untagged Shrm2 SD2, 10 min room temperature; 2% glycerol, 100 mM NaCl, 7 mM imidazole, 1 mM β-mercaptoethanol, 20 mM Tris pH 8.0; SDS-PAGE, Coomassie; details: both partners purified
[10] = target: human Rock1 707–946, 900ESE902 to alanine (human, UniProt Q13464 707-946, 900ESE902 alanine substitutions); experiment: FP
[11] = target: T4, human Rock1 707–946, wild type; experiment: fluorescence polarisation; fluorescence anisotropy; 20 nM (legends: 50 nM) N-terminally Oregon Green 488-labelled Shrm2 SD2, increasing concentrations of Rock1 SBD; 20 mM Hepes pH 7.4, 100 mM NaCl, 5% glycerol; single binding model; details: both partners purified

Binder: B1
Kd [1]: 5.3 µM
stoichiometry N [2]: 2
binding result [3]: binds

Binder: B2
binding result [4]: binds

Binder: B3
stoichiometry N [2]: 2

Binder: B4
Kd [1]: 1.7 µM

Binder: B5
binding result [5]: binds
binding result [6]: binds
binding result [7]: binds
binding result [8]: binds
binding result [9]: binds

Binder: B6
Kd [10]: 9.3 µM
binding result [11]: binds

Binder: B7
fold decrease in binding affinity against wild type [3]: ~5.5 fold

Binder: B8
binding result [4]: binds
